In patent US20250250314A1 (XILIO DEVELOPMENT, published 2025):

B1: UCM5 (other)
heavy 1: QVQLVQSGVEVKKPGASVKVSCKASGYTFTNYYMYWVRQAPGQGLEWMGGINPSNGGTNFNEKFKNRVTLTTDSSTTTAYMELKSLQFDDTAVYYCARRDYRFDMGFDYWGQGTTVTVSSASTKGPSVFPLAPSSKSTSGGTAALGCLVKDYFPEPVTVSWNSGALTSGVHTFPAVLQSSGLYSLSSVVTVPSSSLGTQTYICNVNHKPSNTKVDKKVEPKSCDKTHTCPPCPAPELLGGPSVFLFPPKPKDTLMISRTPEVTCVVVDVSHEDPEVKFNWYVDGVEVHNAKTKPREEQYASTYRVVSVLTVLHQDWLNGKEYKCKVSNKALPAPIEKTISKAKGQPREPQVYTLPPCRDELTKNQVSLWCLVKGFYPSDIAVEWESNGQPENNYKTTPPVLDSDGSFFLYSKLTVDKSRWQQGNVFSCSVMHEALHNRFTQKSLSLSPGGGSSPPGGGSSGGGSGPAPTSSSTKKTQLQLEHLLLDLQMILNGINNYKNPKLTAMLTAKFAMPKKATELKHLQCLEEALKPLEEVLNLAQSKNFHLRPRDLISNINVIVLELKGSETTFMCEYADETATIVEFLNRWITFAQSIISTLT
heavy 2: QVQLVQSGVEVKKPGASVKVSCKASGYTFTNYYMYWVRQAPGQGLEWMGGINPSNGGTNFNEKFKNRVTLTTDSSTTTAYMELKSLQFDDTAVYYCARRDYRFDMGFDYWGQGTTVTVSSASTKGPSVFPLAPSSKSTSGGTAALGCLVKDYFPEPVTVSWNSGALTSGVHTFPAVLQSSGLYSLSSVVTVPSSSLGTQTYICNVNHKPSNTKVDKKVEPKSCDKTHTCPPCPAPELLGGPSVFLFPPKPKDTLMISRTPEVTCVVVDVSHEDPEVKFNWYVDGVEVHNAKTKPREEQYASTYRVVSVLTVLHQDWLNGKEYKCKVSNKALPAPIEKTISKAKGQPREPQVCTLPPSRDELTKNQVSLSCAVKGFYPSDIAVEWESNGQPENNYKTTPPVLDSDGSFFLVSKLTVDKSRWQQGNVFSCSVMHEALHNHYTAPAGLIVPYNGGSSGSGGSGGGSGSGGGEVQLVESGGGLVQPGGSLRLSCAASGSIFSINVMGWYRQAPGKQRELVAAISSGGSTNYADSVKGRFTISRDNAKNTVYLQMNSLKPEDTAVYYCMYASSWYEDETDYWGQGTQVTVSS
light: EIVLTQSPATLSLSPGERATLSCRASKGVSTSGYSYLHWYQQKPGQAPRLLIYLASYLESGVPARFSGSGSGTDFTLTISSLEPEDFAVYYCQHSRDLPLTFGGGTKVEIKRTVAAPSVFIFPPSDEQLKSGTASVVCLLNNFYPREAKVQWKVDNALQSGNSQESVTEQDSKDSTYSLSSTLTLSKADYEKHKVYACEVTHQGLSSPVTKSFNRGEC
B2: UCM6 (other)
heavy 1: QVQLVQSGVEVKKPGASVKVSCKASGYTFTNYYMYWVRQAPGQGLEWMGGINPSNGGTNFNEKFKNRVTLTTDSSTTTAYMELKSLQFDDTAVYYCARRDYRFDMGFDYWGQGTTVTVSSASTKGPSVFPLAPSSKSTSGGTAALGCLVKDYFPEPVTVSWNSGALTSGVHTFPAVLQSSGLYSLSSVVTVPSSSLGTQTYICNVNHKPSNTKVDKKVEPKSCDKTHTCPPCPAPELLGGPSVFLFPPKPKDTLMISRTPEVTCVVVDVSHEDPEVKFNWYVDGVEVHNAKTKPREEQYASTYRVVSVLTVLHQDWLNGKEYKCKVSNKALPAPIEKTISKAKGQPREPQVYTLPPCRDELTKNQVSLWCLVKGFYPSDIAVEWESNGQPENNYKTTPPVLDSDGSFFLYSKLTVDKSRWQQGNVFSCSVMHEALHNRFTQKSLSLSPGGGSSPPGGGSSGGGSGPAPTSSSTKKTQLQLEHLLLDLQMILNGINNYKNPKLTAMLTAKFAMPKKATELKHLQCLEEALKPLEEVLNLAQSKNFHLRPRDLISNINVIVLELKGSETTFMCEYADETATIVEFLNRWITFAQSIISTLT
heavy 2: QVQLVQSGVEVKKPGASVKVSCKASGYTFTNYYMYWVRQAPGQGLEWMGGINPSNGGTNFNEKFKNRVTLTTDSSTTTAYMELKSLQFDDTAVYYCARRDYRFDMGFDYWGQGTTVTVSSASTKGPSVFPLAPSSKSTSGGTAALGCLVKDYFPEPVTVSWNSGALTSGVHTFPAVLQSSGLYSLSSVVTVPSSSLGTQTYICNVNHKPSNTKVDKKVEPKSCDKTHTCPPCPAPELLGGPSVFLFPPKPKDTLMISRTPEVTCVVVDVSHEDPEVKFNWYVDGVEVHNAKTKPREEQYASTYRVVSVLTVLHQDWLNGKEYKCKVSNKALPAPIEKTISKAKGQPREPQVCTLPPSRDELTKNQVSLSCAVKGFYPSDIAVEWESNGQPENNYKTTPPVLDSDGSFFLVSKLTVDKSRWQQGNVFSCSVMHEALHNHYTPANLVAPDPGGGSSGSGGSGGGSGSGGGEVQLVESGGGLVQPGGSLRLSCAASGSIFSINVMGWYRQAPGKQRELVAAISSGGSTNYADSVKGRFTISRDNAKNTVYLQMNSLKPEDTAVYYCMYASSWYEDETDYWGQGTQVTVSS
light: EIVLTQSPATLSLSPGERATLSCRASKGVSTSGYSYLHWYQQKPGQAPRLLIYLASYLESGVPARFSGSGSGTDFTLTISSLEPEDFAVYYCQHSRDLPLTFGGGTKVEIKRTVAAPSVFIFPPSDEQLKSGTASVVCLLNNFYPREAKVQWKVDNALQSGNSQESVTEQDSKDSTYSLSSTLTLSKADYEKHKVYACEVTHQGLSSPVTKSFNRGEC

Biological target: PD-1 from the PD-1 effector cells (UniProt Q15116 25-288, limits assumed)
Sequence (Q15116 25-288 limits assumed): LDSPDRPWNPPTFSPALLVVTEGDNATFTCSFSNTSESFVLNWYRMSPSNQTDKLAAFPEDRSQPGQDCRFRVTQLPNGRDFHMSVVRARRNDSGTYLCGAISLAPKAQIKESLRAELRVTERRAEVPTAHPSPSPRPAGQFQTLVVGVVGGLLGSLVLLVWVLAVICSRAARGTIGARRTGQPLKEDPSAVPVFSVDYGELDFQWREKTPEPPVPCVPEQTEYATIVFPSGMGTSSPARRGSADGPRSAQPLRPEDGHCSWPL
Assay: cell-based or functional assay

Binder | EC50 (nM), fold induction of luminescence in the PD-1/PD-L1 Blockade Bioassay
B1 | 1.15 nM
B2 | 1.2 nM
